From US20080193964A1, “Compositions and methods for regulation of calcium-dependent signaling in brain” (priority 2002, published 2008)
Substitutions are numbered along the chain they refer to.

Columns and labels:
DARPP-21 phosphorylation = details: treatment of mice; cited from earlier work
calmodulin [1] = target: T1, calmodulin (Rattus norvegicus, UniProt P0DP29); test: Yeast two-hybrid protein-protein binding assay; details: yeast strain EGY48; FIG. 2
T1 construct: host or cells: yeast strain EGY48
Procedure: Protein-protein binding assays were performed in a yeast two-hybrid system using the DupLexA system (Origene Technologies, Rockville, Md.) in yeast strain EGY48. To generate a fusion protein of LexA and DARPP-21, DARPP-21 cDNA was subcloned into EcoRI-XhoI sites of pEG202 bait vector. Prey vector contained oligo-dT primed rat brain library (Origene Technologies, Rockville, Md.) attached to the B42 acid blob domain and governed by a gal-1 promoter.
Yeast were sequentially transformed with the bait, pSH18-34 lacZ-harboring prey cDNA library-containing plasmids using the lithium acetate protocol. Efficiency of transformation was estimated to be 10^6 with a library complexity of 4×10^6 individual clones. Positive clones appeared 3 to 7 days after transformation. Bait-prey interaction was assessed by intensity of growth on a (gal)(-his, -trp, -ura, -leu) medium. Specificity of the interaction was verified by X-gal staining and mating assay (Origene Technologies, Rockville, Md.).
To confirm calmodulin-DARPP-21 interactions and compare calmodulin binding to DARPP-21 mutants, EGY48 yeast cells were transformed with the bait, prey and lacZ reporter plasmids and plated onto (glu)(-his, -trp, -ura) plates. Four days later, selected colonies were transferred into a liquid (+raf)(-his, -trp, -ura) medium and grown overnight at 30 C with vigorous shaking. […]

calmodulin [2] = target: T2, calmodulin (Bos taurus, UniProt P62157); test: Affinity chromatography using calmodulin-Sepharose; format: binding; details: 0.5 mM CaCl2 buffer versus 1 mM EGTA buffer; FIG. 5
T2 construct: purchased Amersham Pharmacia Biotech
Procedure: DARPP-21 (0.5 ml of 0.1 mg/ml) was applied to 0.5 ml of 1 mg/ml calmodulin-Sepharose (Amersham Pharmacia Biotech, Piscataway, N.J.) in buffer B (100 mM NaCl, 20 mM Tris pH 7.5, 1 mM MgCl2, 0.5 mM CaCl2, 1 mM DTT) or buffer C containing 1 mM EGTA instead of 0.5 mM CaCl2. Beads were washed with several volumes of buffer D containing 300 mM NaCl and 20 mM Tris pH 7.5 and bound proteins were eluted with 10 mM EGTA/20 mM Tris pH 7.5.

CaMKI = test: In vitro inhibition of CaMKI kinase activity; format: biochemical
Procedure: (§1) For preparations of phosphorylated DARPP-21, the protein was phosphorylated in vitro using [γ-^32P]ATP with the catalytic subunit of PKA as described (Caporaso et al. 2000. Neuropharmacology 39:1636-1643). The stoichiometry of phosphorylation was determined to be 95% for DARPP-21.
(§2) DARPP-21 was phosphorylated as described in Section 6.1. In vitro inhibition studies on the kinase and phosphatase activities of CaMKI and calcineurin, respectively, were performed according to standard techniques in the art.

calcineurin = test: In vitro inhibition of calcineurin phosphatase activity; format: biochemical
Procedure: as §1, §2

[3] = same concentration as phosphorylated DARPP-21

## CN[C@@H](C)Cc1ccccc1 [methamphetamine]
DARPP-21 phosphorylation
  DARPP-21 phosphorylation in vivo: increased

B1: Ser^55 to alanine in DARPP-21: DARPP-21 mutant with Ala substitution for Ser^55, LexA fusion in yeast (protein, UniProt Q9UBL0 2-812, looked up, variant S55A)
cAMP-regulated phosphoprotein …: SEQGDLNQAIAEEGGTEQETATPENGIVKSESLDEEEKLELQRRLEAQNQERRKAKSGAGKGKLTRSLAVCEESSARPGGESLQDQESIHLQLSSFSSLQEEDKSRKDDSEREKEKDKNKDKTSEKPKIRMLSKDCSQEYTDSTGIDLHEFLINTLKNNSRDRMILLKMEQEIIDFIADNNNHYKKFPQMSSYQRMLVHRVAAYFGLDHNVDQTGKSVIINKTSSTRIPEQRFCEHLKDEKGEESQKRFILKRDNSSIDKEDNQQNRMHPFRDDRRSKSIEEREEEYQRVRERIFAHDSVCSQESLFVENSRLLEDSNICNETYKKRQLFRGNRDGSGRTSGSRQSSSENELKWSDHQRAWSSTDSDSSNRNLKPAMTKTASFGGITVLTRGDSTSSTRSTGKLSKAGSESSSSAGSSGSLSRTHPPLQSTPLVSGVAAGSPGCVPYPENGIGGQVAPSSTSYILLPLEAATGIPPGSILLNPHTGQPFVNPDGTPAIYNPPTSQQPLRSAMVGQSQQQPPQQQPSPQPQQQVQPPQPQMAGPLVTQRDDVATQFGQMTLSRQSSGETPEPPSGPVYPSSLMPQPAQQPSYVIASTGQQLPTGGFSGSGPPISQQVLQPPPSPQGFVQQPPPAQMPVYYYPSGQYPTSTTQQYRPMAPVQYNAQRSQQMPQAAQQAGYQPVLSGQQGFQGLIGVQQPPQSQNVINNQQGTPVQSVMVSYPTMSSYQVPMTQGSQGLPQQSYQQPIMLPNQAGQGSLPATGMPVYCNVTPPTPQNNLRLIGPHCPSSTVPVMSASCRTNCASMSNAGWQVKF
modifications: LexA fusion
notes: DARPP-21 mutant with Ala substitution for Ser^55, LexA fusion in yeast
Calmodulin [1]
  interaction with calmodulin in yeast: completely inhibited the interaction with calmodulin

B2: DARPP-21: neuronal 21 kDa dopamine- and cAMP-regulated phosphoprotein (protein, UniProt Q9UBL0 2-812, looked up)
cAMP-regulated phosphoprotein …: B1 cAMP-regulated phosphoprotein … with A55S
Calmodulin [2]
  binding to calmodulin-Sepharose: detected only in the calcium-equilibrated column

B3: Phosphorylated DARPP-21: DARPP-21 phosphorylated in vitro with the catalytic subunit of PKA (protein, UniProt Q9UBL0 2-812, looked up)
cAMP-regulated phosphoprotein …: B1 cAMP-regulated phosphoprotein … with A55S
modifications: phospho-Ser55
notes: DARPP-21 phosphorylated in vitro with the catalytic subunit of PKA
CaMKI; in vitro, FIG. 6
  IC50: 1200 nM
calcineurin; in vitro, FIG. 7
  IC50: 1000 nM

B4: unphosphorylated DARPP-21: neuronal 21 kDa dopamine- and cAMP-regulated phosphoprotein, not phosphorylated (protein, UniProt Q9UBL0 2-812, looked up)
cAMP-regulated phosphoprotein …: B1 cAMP-regulated phosphoprotein … with A55S
CaMKI; [3]
  effect on CaMKI activity: no effect
calcineurin; [3]
  effect on calcineurin activity: no effect
